{"source": "patent US9976134B2", "about": "“Thermolysin variants” (Danisco US Inc., priority 2007, dated 2018)", "molecules": {"B1": {"name": "Y151R: single-substitution thermolysin variant (SEQ ID NO:3 numbering) (protein, listed as Geobacillus caldoproteolyticus)", "chain": "ITGTSTVGVGRGVLGDQKNINTTYSTYYYLQDNTRGNGIFTYDAKYRTTLPGSLWADADNQFFASYDAPAVDAHYYAGVTYDYYKNVHNRLSYDGNNAAIRSSVHYSQGYNNAFWNGSQMVYGDGDGQTFIPLSGGIDVVAHELTHAVTDRTAGLIYQNESGAINEAISDIFGTLVEFYANKNPDWEIGEDVYTPGISGDSLRSMSDPAKYGDPDHYSKRYTGTQDNGGVHINSGIINKAAYLISQGGTHYGVSVVGIGRDKLGKIFYRALTQYLTPTSNFSQLRAAAVQSATDLYGSTSQEVASVKQAFDAVGVK"}, "B2": {"name": "I156R: single-substitution thermolysin variant (SEQ ID NO:3 numbering) (protein, listed as Geobacillus caldoproteolyticus)", "chain": "ITGTSTVGVGRGVLGDQKNINTTYSTYYYLQDNTRGNGIFTYDAKYRTTLPGSLWADADNQFFASYDAPAVDAHYYAGVTYDYYKNVHNRLSYDGNNAAIRSSVHYSQGYNNAFWNGSQMVYGDGDGQTFIPLSGGIDVVAHELTHAVTDYTAGLRYQNESGAINEAISDIFGTLVEFYANKNPDWEIGEDVYTPGISGDSLRSMSDPAKYGDPDHYSKRYTGTQDNGGVHINSGIINKAAYLISQGGTHYGVSVVGIGRDKLGKIFYRALTQYLTPTSNFSQLRAAAVQSATDLYGSTSQEVASVKQAFDAVGVK"}, "B3": {"name": "I156W: single-substitution thermolysin variant (SEQ ID NO:3 numbering) (protein, listed as Geobacillus caldoproteolyticus)", "chain": "ITGTSTVGVGRGVLGDQKNINTTYSTYYYLQDNTRGNGIFTYDAKYRTTLPGSLWADADNQFFASYDAPAVDAHYYAGVTYDYYKNVHNRLSYDGNNAAIRSSVHYSQGYNNAFWNGSQMVYGDGDGQTFIPLSGGIDVVAHELTHAVTDYTAGLWYQNESGAINEAISDIFGTLVEFYANKNPDWEIGEDVYTPGISGDSLRSMSDPAKYGDPDHYSKRYTGTQDNGGVHINSGIINKAAYLISQGGTHYGVSVVGIGRDKLGKIFYRALTQYLTPTSNFSQLRAAAVQSATDLYGSTSQEVASVKQAFDAVGVK"}, "B4": {"name": "T049L: single-substitution thermolysin variant (SEQ ID NO:3 numbering) (protein, listed as Geobacillus caldoproteolyticus)", "chain": "ITGTSTVGVGRGVLGDQKNINTTYSTYYYLQDNTRGNGIFTYDAKYRTLLPGSLWADADNQFFASYDAPAVDAHYYAGVTYDYYKNVHNRLSYDGNNAAIRSSVHYSQGYNNAFWNGSQMVYGDGDGQTFIPLSGGIDVVAHELTHAVTDYTAGLIYQNESGAINEAISDIFGTLVEFYANKNPDWEIGEDVYTPGISGDSLRSMSDPAKYGDPDHYSKRYTGTQDNGGVHINSGIINKAAYLISQGGTHYGVSVVGIGRDKLGKIFYRALTQYLTPTSNFSQLRAAAVQSATDLYGSTSQEVASVKQAFDAVGVK"}, "B5": {"name": "I156M: single-substitution thermolysin variant (SEQ ID NO:3 numbering) (protein, listed as Geobacillus caldoproteolyticus)", "chain": "ITGTSTVGVGRGVLGDQKNINTTYSTYYYLQDNTRGNGIFTYDAKYRTTLPGSLWADADNQFFASYDAPAVDAHYYAGVTYDYYKNVHNRLSYDGNNAAIRSSVHYSQGYNNAFWNGSQMVYGDGDGQTFIPLSGGIDVVAHELTHAVTDYTAGLMYQNESGAINEAISDIFGTLVEFYANKNPDWEIGEDVYTPGISGDSLRSMSDPAKYGDPDHYSKRYTGTQDNGGVHINSGIINKAAYLISQGGTHYGVSVVGIGRDKLGKIFYRALTQYLTPTSNFSQLRAAAVQSATDLYGSTSQEVASVKQAFDAVGVK"}, "B6": {"name": "I156T: single-substitution thermolysin variant (SEQ ID NO:3 numbering) (protein, listed as Geobacillus caldoproteolyticus)", "chain": "ITGTSTVGVGRGVLGDQKNINTTYSTYYYLQDNTRGNGIFTYDAKYRTTLPGSLWADADNQFFASYDAPAVDAHYYAGVTYDYYKNVHNRLSYDGNNAAIRSSVHYSQGYNNAFWNGSQMVYGDGDGQTFIPLSGGIDVVAHELTHAVTDYTAGLTYQNESGAINEAISDIFGTLVEFYANKNPDWEIGEDVYTPGISGDSLRSMSDPAKYGDPDHYSKRYTGTQDNGGVHINSGIINKAAYLISQGGTHYGVSVVGIGRDKLGKIFYRALTQYLTPTSNFSQLRAAAVQSATDLYGSTSQEVASVKQAFDAVGVK"}, "B7": {"name": "Y151W: single-substitution thermolysin variant (SEQ ID NO:3 numbering) (protein, listed as Geobacillus caldoproteolyticus)", "chain": "ITGTSTVGVGRGVLGDQKNINTTYSTYYYLQDNTRGNGIFTYDAKYRTTLPGSLWADADNQFFASYDAPAVDAHYYAGVTYDYYKNVHNRLSYDGNNAAIRSSVHYSQGYNNAFWNGSQMVYGDGDGQTFIPLSGGIDVVAHELTHAVTDWTAGLIYQNESGAINEAISDIFGTLVEFYANKNPDWEIGEDVYTPGISGDSLRSMSDPAKYGDPDHYSKRYTGTQDNGGVHINSGIINKAAYLISQGGTHYGVSVVGIGRDKLGKIFYRALTQYLTPTSNFSQLRAAAVQSATDLYGSTSQEVASVKQAFDAVGVK"}, "B8": {"name": "Y151V: single-substitution thermolysin variant (SEQ ID NO:3 numbering) (protein, listed as Geobacillus caldoproteolyticus)", "chain": "ITGTSTVGVGRGVLGDQKNINTTYSTYYYLQDNTRGNGIFTYDAKYRTTLPGSLWADADNQFFASYDAPAVDAHYYAGVTYDYYKNVHNRLSYDGNNAAIRSSVHYSQGYNNAFWNGSQMVYGDGDGQTFIPLSGGIDVVAHELTHAVTDVTAGLIYQNESGAINEAISDIFGTLVEFYANKNPDWEIGEDVYTPGISGDSLRSMSDPAKYGDPDHYSKRYTGTQDNGGVHINSGIINKAAYLISQGGTHYGVSVVGIGRDKLGKIFYRALTQYLTPTSNFSQLRAAAVQSATDLYGSTSQEVASVKQAFDAVGVK"}, "B9": {"name": "T049I: single-substitution thermolysin variant (SEQ ID NO:3 numbering) (protein, listed as Geobacillus caldoproteolyticus)", "chain": "ITGTSTVGVGRGVLGDQKNINTTYSTYYYLQDNTRGNGIFTYDAKYRTILPGSLWADADNQFFASYDAPAVDAHYYAGVTYDYYKNVHNRLSYDGNNAAIRSSVHYSQGYNNAFWNGSQMVYGDGDGQTFIPLSGGIDVVAHELTHAVTDYTAGLIYQNESGAINEAISDIFGTLVEFYANKNPDWEIGEDVYTPGISGDSLRSMSDPAKYGDPDHYSKRYTGTQDNGGVHINSGIINKAAYLISQGGTHYGVSVVGIGRDKLGKIFYRALTQYLTPTSNFSQLRAAAVQSATDLYGSTSQEVASVKQAFDAVGVK"}}, "key": {"[1]": {"conditions": "TIDE 2X 0.78 g/l, 6 gpg, pH 8.2, 30 min at 20°C, A405; variant vs wild-type thermolysin at same protein concentration", "method": "Thermolysin containing protease samples were obtained from filtered broth of cultures grown in microtiter plates for 3 days at 37° C. with shaking at 280 rpm under humidified aeration.\n• Thermolysin containing culture supernatants (˜100-200 μg protein per ml) • TIDE® 2× (nil enzymes) detergent (P&G) • Dilution Buffer (10 mM NaCl, 0.1 mM CaCl2, 0.005% TWEEN®-80) The equipment used was a Biomek FX Robot (Beckman Coulter), a SpectraMAX MTP Reader (type 340; Molecular Devices), and an iEMS incubator/shaker (Thermo/Labsystems). MTPs were obtained from Costar (type 9017). TIDE® 2× Liquid Detergent Preparation (US Conditions):\nMilli-Q water was adjusted to 6 gpg water hardness using a (Ca/Mg 3:1) hardness stock solution (282.3 g/L CaCl2.2H20, 130.1 g/L MgCl2.6H2O), 0.78 g/1 detergent TIDE® 2× was added, and the detergent solution was stirred vigorously for at least 15 minutes. Then, 5 mM HEPES was added and the pH adjusted to 8.2.\nMicroswatches of ¼ inch circular diameter were obtained from CFT (Vlaardingen, The Netherlands).\nTwo microswatches were placed vertically into each well of a 96-well microtiter plate to expose the whole surface area (i.e., not flat on the bottom of the well).\nThe incubator was set to 20° C. The filtered culture broth samples were tested at an appropriate concentration by dilution with a mixture of 10 mM NaCl, 0.1 mM CaCl2, 0.005% TWEEN®-80 solution. The detergent solution was prepared as described above. Then, 190 μl of detergent solution were added to each well of the MTP, containing microswatches. To this mixture, 10 μl of diluted enzyme solution were added to each well (to provide a total volume of 200 μl/well). The MTP was covered with a plate seal and placed in an incubator for 30 minutes at 20° C., with agitation at 1400 rpm (iEMS incubator). Following incubation under the appropriate conditions, 100 μl of solution from each well was removed and placed into a new MTP. Subsequently this MTP, containing 100 μl of solution/well, was read at 405 nm in a MTP-Reader. Blank controls, containing 2 microswatches/well and detergent, without the addition of thermolysin containing samples, were also included in the test.\nThe observed absorbance value was corrected for the blank value (obtained after incubation of microswatches in the absence of added enzyme). The resulting absorbance was a measure for the hydrolytic activity. For each sample (thermolysin or a variant) the performance index (PI) was calculated. The performance index is a comparison of the performance of the variant (actual value) and the standard thermolysin enzyme (theoretical value) at the same protein concentration. In addition, the theoretical values were calculated, using the parameters of the Langmuir equation of the standard enzyme.\nC. Stability Assay in the Presence of Detergent\nIn this example, experiments were conducted to determine the stain removal performance of various singly substituted thermolysin (also referred to herein as Proteinase-T or PrT) variants. As described in Example 1, the stain cleaning performance of thermolysin variants was done utilizing a blood/milk/ink (BMI) microswatch assay. Briefly the cleaning performance of chosen single-substitution thermolysin variants was assessed in a TIDE® 2× microswatch assay."}, "[2]": {"test": "Stability assay in 25% TIDE 2X detergent with DTPA (residual Abz-AGLA-Nba protease activity)", "type": "physicochemical", "conditions": "60 min at 32°C; variant residual AGLA activity divided by wild-type residual activity", "method_in_brief": "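Thermolysin variant culture supernatants stressed in TIDE 2× detergent, with or without DTPA: 60 min at 32° C or 180 min at 50° C. Residual versus unstressed activity on Abz-AGLA-Nba read kinetically at 25° C (Ex 350/Em 420). Performance index is variant residual activity divided by wild-type thermolysin residual activity.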"}}, "data": [{"molecule": "B1", "values": [{"measurement": "PI (performance index), stain removal", "setting": "[1]", "result": 1.75}, {"measurement": "PI (relative stability), 25% TIDE 2X with DTPA", "setting": "[2]", "result": 1.26}]}, {"molecule": "B2", "values": [{"measurement": "PI (performance index), stain removal", "setting": "[1]", "result": 1.22}, {"measurement": "PI (relative stability), 25% TIDE 2X with DTPA", "setting": "[2]", "result": 1.15}]}, {"molecule": "B3", "values": [{"measurement": "PI (performance index), stain removal", "setting": "[1]", "result": 1.16}, {"measurement": "PI (relative stability), 25% TIDE 2X with DTPA", "setting": "[2]", "result": 1.12}]}, {"molecule": "B4", "values": [{"measurement": "PI (performance index), stain removal", "setting": "[1]", "result": 1.25}, {"measurement": "PI (relative stability), 25% TIDE 2X with DTPA", "setting": "[2]", "result": 1.02}]}, {"molecule": "B5", "values": [{"measurement": "PI (performance index), stain removal", "setting": "[1]", "result": 1.11}, {"measurement": "PI (relative stability), 25% TIDE 2X with DTPA", "setting": "[2]", "result": 1.19}]}, {"molecule": "B6", "values": [{"measurement": "PI (performance index), stain removal", "setting": "[1]", "result": 1.03}, {"measurement": "PI (relative stability), 25% TIDE 2X with DTPA", "setting": "[2]", "result": 1.08}]}, {"molecule": "B7", "values": [{"measurement": "PI (performance index), stain removal", "setting": "[1]", "result": 1.22}, {"measurement": "PI (relative stability), 25% TIDE 2X with DTPA", "setting": "[2]", "result": 1.02}]}, {"molecule": "B8", "values": [{"measurement": "PI (performance index), stain removal", "setting": "[1]", "result": 1.25}, {"measurement": "PI (relative stability), 25% TIDE 2X with DTPA", "setting": "[2]", "result": 1.11}]}, {"molecule": "B9", "values": [{"measurement": "PI (performance index), stain removal", "setting": "[1]", "result": 1.24}, {"measurement": "PI (relative stability), 25% TIDE 2X with DTPA", "setting": "[2]", "result": 1.01}]}]}
